Measured values from patent US20230021388A1 (VELOSBIO, published 2023).

Molecular target: T1, recombinant human ROR1 extracellular domain (human, UniProt Q01973 30-406)
T1 construct: biotinylated for the filter lifts; also called huROR1-ECD; human ROR1-ECD
Experiment: ELISA, soluble Fab on coated huROR1-ECD
Procedure: The previously described filter lift assay provides a visual, qualitative assessment of antigen binding (Example 1). In order to assess the ROR1 binding activity of Ab1 Fab in a more quantitative fashion, an ELISA assay was developed. A 96-well Costar-3366 plate was coated with 50 μL/well of 1 μg/mL human ROR1-ECD (ACROBiosystems, cat. #RO1-H522y) in PBS overnight at 4° C. The plate was rinsed once with PBS-T and blocked with 100 μL/well of 5% M-P for 1 h at 25° C. Fab samples were serially diluted 3-fold using 5% M-P and 50 μL/well was incubated for 1 h at 25° C. The plate was washed three times with PBS-T and 50 μL/well anti-human kappa, and HRP conjugate (Southern Biotech, cat. #2060-05) diluted 10,000-fold in 5% M-P was added for 1 h at 25° C. In certain assays (extended wash format), the plate was placed in large volumes (up to 1 L) of PBS-T and incubated, with mixing, for 2-5 h prior to the addition of anti-human kappa, HRP conjugate. The plate was washed three times with PBS-T, and developed with 50 μL/well 1-Step Ultra TMB-ELISA (Thermo Scientific, cat. #34028). The reaction was terminated by the addition of 2 N H2504 and the A450 was determined using a Spectramax plate reader.

T1 sequence (Q01973 30-406 limits assumed): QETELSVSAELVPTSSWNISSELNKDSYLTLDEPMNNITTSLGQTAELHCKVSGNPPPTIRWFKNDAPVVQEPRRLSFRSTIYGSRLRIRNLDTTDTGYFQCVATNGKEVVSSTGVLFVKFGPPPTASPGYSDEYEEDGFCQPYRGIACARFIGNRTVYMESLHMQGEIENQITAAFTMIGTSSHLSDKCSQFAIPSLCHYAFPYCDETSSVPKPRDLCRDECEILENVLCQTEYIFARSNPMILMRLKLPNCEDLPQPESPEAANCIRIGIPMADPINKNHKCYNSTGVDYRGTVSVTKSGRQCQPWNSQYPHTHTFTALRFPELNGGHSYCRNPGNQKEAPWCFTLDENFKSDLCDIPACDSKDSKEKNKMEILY

Binder | Kd [nM]
Ab1 Fab variant H2 S57A (Fab, V domains shown) VH: QVQLQESGPGLVKPSQTLSLTCTVSGYAFTAYNIHWVRQAPGQGLEWMGAFDPYDGGSSYNQKFKDRLTISKDTSKNQVVLTMTNMDPVDTATYYCARGWYYFDYWGHGTLVTVSS VL: DIVMTQTPLSLPVTPGEPASISCRASKSISKYLAWYQQKPGQAPRLLIYSGSTLQSGIPPRFSGSGYGTDFTLTINNIESEDAAYYFCQQHDESPYTFGEGTKVEIK | 3.6
Ab1 Fab variant H1 N40R (Fab, V domains shown) VH: QVQLQESGPGLVKPSQTLSLTCTVSGYAFTAYRIHWVRQAPGQGLEWMGSFDPYDGGSSYNQKFKDRLTISKDTSKNQVVLTMTNMDPVDTATYYCARGWYYFDYWGHGTLVTVSS VL: DIVMTQTPLSLPVTPGEPASISCRASKSISKYLAWYQQKPGQAPRLLIYSGSTLQSGIPPRFSGSGYGTDFTLTINNIESEDAAYYFCQQHDESPYTFGEGTKVEIK | 43
Ab1 Fab variant H1 I41V (Fab, V domains shown) VH: QVQLQESGPGLVKPSQTLSLTCTVSGYAFTAYNVHWVRQAPGQGLEWMGSFDPYDGGSSYNQKFKDRLTISKDTSKNQVVLTMTNMDPVDTATYYCARGWYYFDYWGHGTLVTVSS VL: DIVMTQTPLSLPVTPGEPASISCRASKSISKYLAWYQQKPGQAPRLLIYSGSTLQSGIPPRFSGSGYGTDFTLTINNIESEDAAYYFCQQHDESPYTFGEGTKVEIK | 3.5
Ab1 Fab variant L1 S32I (Fab, V domains shown, Fab) VH: QVQLQESGPGLVKPSQTLSLTCTVSGYAFTAYNIHWVRQAPGQGLEWMGSFDPYDGGSSYNQKFKDRLTISKDTSKNQVVLTMTNMDPVDTATYYCARGWYYFDYWGHGTLVTVSS VL: DIVMTQTPLSLPVTPGEPASISCRASKSIIKYLAWYQQKPGQAPRLLIYSGSTLQSGIPPRFSGSGYGTDFTLTINNIESEDAAYYFCQQHDESPYTFGEGTKVEIK | 1.9
Ab1 Fab variant L1 S32A (Fab, V domains shown, Fab) VH: QVQLQESGPGLVKPSQTLSLTCTVSGYAFTAYNIHWVRQAPGQGLEWMGSFDPYDGGSSYNQKFKDRLTISKDTSKNQVVLTMTNMDPVDTATYYCARGWYYFDYWGHGTLVTVSS VL: DIVMTQTPLSLPVTPGEPASISCRASKSIAKYLAWYQQKPGQAPRLLIYSGSTLQSGIPPRFSGSGYGTDFTLTINNIESEDAAYYFCQQHDESPYTFGEGTKVEIK | 1.1
Ab1 Fab variant L2 L70H (Fab, V domains shown, Fab; also called SGSTHQS) VH: QVQLQESGPGLVKPSQTLSLTCTVSGYAFTAYNIHWVRQAPGQGLEWMGSFDPYDGGSSYNQKFKDRLTISKDTSKNQVVLTMTNMDPVDTATYYCARGWYYFDYWGHGTLVTVSS VL: DIVMTQTPLSLPVTPGEPASISCRASKSISKYLAWYQQKPGQAPRLLIYSGSTHQSGIPPRFSGSGYGTDFTLTINNIESEDAAYYFCQQHDESPYTFGEGTKVEIK | 2.3
Ab1 Fab variant L1 S30P (Fab, V domains shown, Fab) VH: QVQLQESGPGLVKPSQTLSLTCTVSGYAFTAYNIHWVRQAPGQGLEWMGSFDPYDGGSSYNQKFKDRLTISKDTSKNQVVLTMTNMDPVDTATYYCARGWYYFDYWGHGTLVTVSS VL: DIVMTQTPLSLPVTPGEPASISCRASKPISKYLAWYQQKPGQAPRLLIYSGSTLQSGIPPRFSGSGYGTDFTLTINNIESEDAAYYFCQQHDESPYTFGEGTKVEIK | 16

The next lines start with the values.

Kd [nM] | Binder
2.1 | Ab1 Fab variant L2 T69R (Fab, V domains shown, Fab; also called SGSRLQS) VH: QVQLQESGPGLVKPSQTLSLTCTVSGYAFTAYNIHWVRQAPGQGLEWMGSFDPYDGGSSYNQKFKDRLTISKDTSKNQVVLTMTNMDPVDTATYYCARGWYYFDYWGHGTLVTVSS VL: DIVMTQTPLSLPVTPGEPASISCRASKSISKYLAWYQQKPGQAPRLLIYSGSRLQSGIPPRFSGSGYGTDFTLTINNIESEDAAYYFCQQHDESPYTFGEGTKVEIK
1.6 | Ab1 Fab variant L2 S68G (Fab, V domains shown, Fab; also called SGGTLQS) VH: QVQLQESGPGLVKPSQTLSLTCTVSGYAFTAYNIHWVRQAPGQGLEWMGSFDPYDGGSSYNQKFKDRLTISKDTSKNQVVLTMTNMDPVDTATYYCARGWYYFDYWGHGTLVTVSS VL: DIVMTQTPLSLPVTPGEPASISCRASKSISKYLAWYQQKPGQAPRLLIYSGGTLQSGIPPRFSGSGYGTDFTLTINNIESEDAAYYFCQQHDESPYTFGEGTKVEIK
1.5 | Ab1 Fab variant L2 L70K (Fab, V domains shown, Fab; also called SGSTKQS) VH: QVQLQESGPGLVKPSQTLSLTCTVSGYAFTAYNIHWVRQAPGQGLEWMGSFDPYDGGSSYNQKFKDRLTISKDTSKNQVVLTMTNMDPVDTATYYCARGWYYFDYWGHGTLVTVSS VL: DIVMTQTPLSLPVTPGEPASISCRASKSISKYLAWYQQKPGQAPRLLIYSGSTKQSGIPPRFSGSGYGTDFTLTINNIESEDAAYYFCQQHDESPYTFGEGTKVEIK
1.3 | Ab1 Fab variant L2 Q71V (Fab, V domains shown, Fab; also called SGSTLVS) VH: QVQLQESGPGLVKPSQTLSLTCTVSGYAFTAYNIHWVRQAPGQGLEWMGSFDPYDGGSSYNQKFKDRLTISKDTSKNQVVLTMTNMDPVDTATYYCARGWYYFDYWGHGTLVTVSS VL: DIVMTQTPLSLPVTPGEPASISCRASKSISKYLAWYQQKPGQAPRLLIYSGSTLVSGIPPRFSGSGYGTDFTLTINNIESEDAAYYFCQQHDESPYTFGEGTKVEIK
1.1 | Ab1 Fab variant L2 Q71T (Fab, V domains shown, Fab; also called SGSTLTS) VH: QVQLQESGPGLVKPSQTLSLTCTVSGYAFTAYNIHWVRQAPGQGLEWMGSFDPYDGGSSYNQKFKDRLTISKDTSKNQVVLTMTNMDPVDTATYYCARGWYYFDYWGHGTLVTVSS VL: DIVMTQTPLSLPVTPGEPASISCRASKSISKYLAWYQQKPGQAPRLLIYSGSTLTSGIPPRFSGSGYGTDFTLTINNIESEDAAYYFCQQHDESPYTFGEGTKVEIK
11 | Ab1 Fab variant L2 S68R (Fab, V domains shown, Fab; also called SGRTLQS) VH: QVQLQESGPGLVKPSQTLSLTCTVSGYAFTAYNIHWVRQAPGQGLEWMGSFDPYDGGSSYNQKFKDRLTISKDTSKNQVVLTMTNMDPVDTATYYCARGWYYFDYWGHGTLVTVSS VL: DIVMTQTPLSLPVTPGEPASISCRASKSISKYLAWYQQKPGQAPRLLIYSGRTLQSGIPPRFSGSGYGTDFTLTINNIESEDAAYYFCQQHDESPYTFGEGTKVEIK
1.5 | Ab1 Fab variant L2 T69H (Fab, V domains shown, Fab; also called SGSHLQS) VH: QVQLQESGPGLVKPSQTLSLTCTVSGYAFTAYNIHWVRQAPGQGLEWMGSFDPYDGGSSYNQKFKDRLTISKDTSKNQVVLTMTNMDPVDTATYYCARGWYYFDYWGHGTLVTVSS VL: DIVMTQTPLSLPVTPGEPASISCRASKSISKYLAWYQQKPGQAPRLLIYSGSHLQSGIPPRFSGSGYGTDFTLTINNIESEDAAYYFCQQHDESPYTFGEGTKVEIK

Molecular target: T1, recombinant human ROR1 extracellular …
Experiment: capture filter lift
Procedure: Subsequently, the filter was applied to the agar plates as described above. For detection of antigen binding, the filter was rinsed briefly in PBS, and transferred to biotinylated huROR1-ECD (ACROBiosystems, cat. #RO1-H522y) in 5% M-P.
Filters were incubated with 2.3 nM biotinylated ROR1 diluted in 5% M-P for 2 h at 25° C. with constant agitation, and washed 5 times, 2 minutes each wash, with constant agitation in PBS-T. Alternatively, filters were washed more rapidly using a squirt bottle and sintered glass funnel for vacuum filtration. The filters were transferred to 10 mL of High Sensitivity Neutravidin, HRP conjugate (Thermo Scientific, cat. #31030) diluted 5000-fold in 1% BSA in PBS and incubated for 1 h at 25° C. The filters were then washed 5 times in PBS-T and were developed with 1-Step Ultra TMB-Blotting.
All libraries were initially screened by capture lift to identify variants with improved binding. The capture lift assay, described in Example 1, enables the filter lift assay to discern variants that bind antigen more strongly based on the staining intensity. In order to determine the optimal concentration of antigen to use for screening, biotinylated huROR1-ECD was titrated on a capture lift of Ab1 Fab. Binding to Ab1 was clearly visible at antigen concentrations ≥23 nM and the signal was diminished at lower huROR1 concentrations. […] In addition, for more stringent screening, filters were probed with lower concentrations of antigen and/or development of the filter was terminated earlier, before the Ab1 staining was visible. […] In this example, approximately 250 library variants were plated. Twelve variants clearly bound huROR1 (FIG. 4, numbered).

binding result | Binder
binds | Ab1 Fab variant H1 A30I (Fab, V domains shown, Fab) VH: QVQLQESGPGLVKPSQTLSLTCTVSGYIFTAYNIHWVRQAPGQGLEWMGSFDPYDGGSSYNQKFKDRLTISKDTSKNQVVLTMTNMDPVDTATYYCARGWYYFDYWGHGTLVTVSS VL: DIVMTQTPLSLPVTPGEPASISCRASKSISKYLAWYQQKPGQAPRLLIYSGSTLQSGIPPRFSGSGYGTDFTLTINNIESEDAAYYFCQQHDESPYTFGEGTKVEIK
binds | Ab1 Fab variant H1 F31L (Fab, V domains shown, Fab) VH: QVQLQESGPGLVKPSQTLSLTCTVSGYALTAYNIHWVRQAPGQGLEWMGSFDPYDGGSSYNQKFKDRLTISKDTSKNQVVLTMTNMDPVDTATYYCARGWYYFDYWGHGTLVTVSS VL: DIVMTQTPLSLPVTPGEPASISCRASKSISKYLAWYQQKPGQAPRLLIYSGSTLQSGIPPRFSGSGYGTDFTLTINNIESEDAAYYFCQQHDESPYTFGEGTKVEIK
binds | Ab1 Fab variant H1 F31W (Fab, V domains shown, Fab) VH: QVQLQESGPGLVKPSQTLSLTCTVSGYAWTAYNIHWVRQAPGQGLEWMGSFDPYDGGSSYNQKFKDRLTISKDTSKNQVVLTMTNMDPVDTATYYCARGWYYFDYWGHGTLVTVSS VL: DIVMTQTPLSLPVTPGEPASISCRASKSISKYLAWYQQKPGQAPRLLIYSGSTLQSGIPPRFSGSGYGTDFTLTINNIESEDAAYYFCQQHDESPYTFGEGTKVEIK
binds | Ab1 Fab variant H1 A30R (Fab, V domains shown, Fab) VH: QVQLQESGPGLVKPSQTLSLTCTVSGYRFTAYNIHWVRQAPGQGLEWMGSFDPYDGGSSYNQKFKDRLTISKDTSKNQVVLTMTNMDPVDTATYYCARGWYYFDYWGHGTLVTVSS VL: DIVMTQTPLSLPVTPGEPASISCRASKSISKYLAWYQQKPGQAPRLLIYSGSTLQSGIPPRFSGSGYGTDFTLTINNIESEDAAYYFCQQHDESPYTFGEGTKVEIK
